The conditions of data set [1]: humans, patients with cancer; cited from earlier work.
The conditions of data set [2]: rodents, cited from earlier work.
Data set [3] deals with MC-38 cells, derived from C57BL/6 murine colon adenocarcinoma cells. As to the kind of experiment: Therapy experiments: tumour volume in MC-38 tumor-bearing mice. Format: in vivo, C57BL/6 mice. Particulars: on day 8, 11 and 14. As for the experimental part: MC-38 cells, derived from C57BL/6 murine colon adenocarcinoma cells were cultured in DMEM medium supplemented with Fetal Bovine Serum (10%) and antibiotic-antimycotic (1%) following the supplier's protocol and kept in culture for no longer than 10 passages with a confluence lower than 90%. Eight-week-old female C57BL/6 mice were used for the experiment.
MC-38 cells were grown to 80% confluence and detached with Trypsin-EDTA 0.05%. Cells were washed, counted and re-suspended in HBSS to a final concentration of 1×10^7 cells ml^−1. Aliquots of 1×10^6 cells (100 μl of the suspension) were injected subcutaneously in the right flank of each animal. Tumor volume was determined with the following formula: (length×width^2×0.5) measured with a caliper.
Preparation of the tumor cells and tumor implantation have been done as described above in chapters 2.1 and 2.2.

The nature of data set [4]: Toxicity monitored by daily body weighing of MC-38 tumor-bearing mice. As to conditions: for weight loss: alone or with Ruxolitinib 75 mg/kg s.c., day 8, 11, 14.
Method: When tumors reached an average of about 50-100 mm^3, MC-38 tumor-bearing mice were randomized, and different treatments were started. Eight different groups (4/5 mice per group) received the following treatments: • (i) i.v. vehicle on day 8, 11 and 14 after tumor implantation • (ii) s.c. Ruxolitinib (75 mg/kg) on day 8, 11 and 14 after tumor implantation • (iii) i.v. L19-IL12 (0.6 mg/kg) on day 8, 11 and 14 after tumor implantation • (iv) i.v. L19-IL12 (0.9 mg/kg) on day 8, 11 and 14 after tumor implantation • (v) i.v. L19-IL12 (1.2 mg/kg) on day 8, 11 and 14 after tumor implantation • (vi) s.c Ruxolitinib (75 mg/kg) and i.v. L19-IL12 (0.6 mg/kg) on day 8, 11 and 14 after tumor implantation • (vii) s.c. Ruxolitinib (75 mg/kg) and i.v. L19-IL12 (0.9 mg/kg) on day 8, 11 and 14 after tumor implantation • (viii) s.c. Ruxolitinib (75 mg/kg) and i.v. L19-IL12 (1.2 mg/kg) on day 8, 11 and 14 after tumor implantation
Ruxolitinib was always administered 10 minutes prior the subsequent administration of L19-IL12 at the three different dose levels.
Toxicity of the different treatments was monitored by daily body weighing and general appearance of the animals.

A value given as a limit tells only on which side of the number the result lay.

Consider “recombinant human IL-12: recombinant human interleukin-12 cytokine tested in clinical trials in patients with cancer”, for which the maximal tolerated dose in data set [1] was 0.5 μg/kg of body weight.

`N#CC[C@H](C1CCCC1)n1cc(-c2ncnc3[nH]ccc23)cn1` [Ruxolitinib]: the blood half-life entry in data set [2] (after injection) is given as “less than 1 hour”. Besides, in data set [2], the “time to complete wash-out from blood” value is ≤ 24 h.

B1: L19-IL12: fusion protein of the anti-EDB L19 antibody in single chain diabody format fused to single-chain murine IL-12 (SEQ ID NO 19) (protein)
chain: MWELEKDVYVVEVDWTPDAPGETVNLTCDTPEEDDITWTSDQRHGVIGSGKTLTITVKEFLDAGQYTCHKGGETLSHSHLLLHKKENGIWSTEILKNFKNKTFLKCEAPNYSGRFTCSWLVQRNMDLKFNIKSSSSSPDSRAVTCGMASLSAEKVTLDQRDYEKYSVSCQEDVTCPTAEETLPIELALEARQQNKYENYSTSFFIRDIIKPDPPKNLQMRPLKNSQVEVSWEYPDSWSTPHSYFSLKFFVRIQRKKEKMKETEEGCNQKGAFLVERTSTEVQCKGGNVCVQAQDRYYNSSCSKWACVPCRVRSGGGGSGGGGSGGGGSRVIPVSGPARCLSQSRNLLKTTDDMVKTAREKLKHYSCTAEDIDHEDITRDQTSTLKTCLPLELHKNESCLATRETSSTTRGSCLPPQKTSLMMTLCLGSIYEDLKMYQTEFQAINAALQNHNHQQIILDKGMLVAIDELMQSLNHNGETLRQKPPVGEADPYRVKMKLCILLHAFSTRVVTINRVMGYLSSAGSADGEVQLLESGGGLVQPGGSLRLSCAASGFTFSSFSMSWVRQAPGKGLEWVSSISGSSGTTYYADSVKGRFTISRDNSKNTLYLQMNSLRAEDTAVYYCAKPFPYFDYWGQGTLVTVSSGSSGGEIVLTQSPGTLSLSPGERATLSCRASQSVSSSFLAWYQQKPGQAPRLLIYYASSRATGIPDRFSGSGSGTDFTLTISRLEPEDFAVYYCQQTGRIPPTFGQGTKVEIKSSSSGSSSSGSSSSGEVQLLESGGGLVQPGGSLRLSCAASGFTFSSFSMSWVRQAPGKGLEWVSSISGSSGTTYYADSVKGRFTISRDNSKNTLYLQMNSLRAEDTAVYYCAKPFPYFDYWGQGTLVTVSSGSSGGEIVLTQSPGTLSLSPGERATLSCRASQSVSSSFLAWYQQKPGQAPRLLIYYASSRATGIPDRFSGSGSGTDFTLTISRLEPEDFAVYYCQQTGRIPPTFGQGTKVEIK
modifications: immunocytokine sequence
Regarding B1, the “tumor growth (antitumor activity)” value in data set [3] (L19-IL12 0.6, 0.9 or […] i.v., alone or with Ruxolitinib 75 mg/kg s.c. 10 min before) is listed as “effectively prevented tumor growth”; in data set [3] (high dose L19-IL12 2.4 or 3 mg/kg i.v., alone or with Ruxolitinib 75 mg/kg s.c.), “effectively prevented tumor growth”. The weight loss entry in data set [4] (L19-IL12 0.6 mg/kg i.v.) was “caused a weight loss”; in data set [4] (L19-IL12 0.9 mg/kg i.v.), “more severe toxicity”; in data set [4] (L19-IL12 […] i.v.), “more severe toxicity”; in data set [4] (high dose L19-IL12 2.4 or 3 mg/kg i.v.) it was > 15%. The “outcome of the weight loss for the animals” value in data set [4] (high dose L19-IL12 2.4 or 3 mg/kg monotherapy) is given as “sacrifice of the mice for ethical reasons”.

The record behind these values is patent publication US20250073239A1, “COMBINATION OF AN IMMUNOCYTOKINE COMPRISING IL-12 AND A KINASE INHIBITOR” (PHILOGEN S.P.A., priority 2022, published 2025).
